The DeepSol protein solubility set

experiment: soluble on expression in E. coli; label from the status in PepcDB or PDB records

Row | Sequence | soluble on expression in E. coli
1 | GAKPERGRFLHFHSVTFWVGNAKQAASFYCSKMGFEPLAYRGLETGSREVVSHVIKQGKIVFVLSSALNPWNKEMGDHLVKHGDGVKDIAFEVEDCDYIVQKARERGAKIMREPWVEQDKFGKVKFAVLQTYGDTTHTLVEKMNYIGQFLPGYEAPAFMDPLLPKLPKCSLEMIDHIVGNQPDQEMVSASEWYLKNLQFHRFWSVDDTQVHTEYSSLRSIVVANYEESIKMPINEPAPGKKKSQIQEYVDYNGGAGVQHIALKTEDIITAIRHLRERGLEFLSVPSTYYKQLREKLKTAKIKVKENIDALEELKILVDYDEKGYLLQIFTKPVQDRPTLFLEVIQRHNHQGFGAGNFNSLFKAFEEEQNLRGNLTNMETNGVVPGMAENLYFQ | soluble
2 | GAMAEYEIDEITFHKRLGILLTSWKNEEDGKTLFQDCDSILVTVGAHDDTNPYQKSTALHTWLLGYEFPSTLILLEKHRITILTSVNKANMLTKLAETKGAAADVNILKRTKDAEENKKLFEKIIEYIRATNKKVGVFPKDKTQGKFINEWDSIFEPVKSEFNLVDASLGLAKCLAIKDEQELANIKGASRVSVAVMSKYFVDELSTYIDQGKKITHSKFSDQMESLIDNEAFFQTKSLKLGDIDLDQLEWCYTPIIQSGGSYDLKPSAITDDRNLHGDVVLCSLGFRYKSYCSNVGRTYLFDPDSEQQKNYSFLVALQKKLFEYCRDGAVIGDIYTKILGLIRAKRPDLEPNFVRNLGAGIGIEFRESSLLVNAKNPRVLQAGMTLNLSIGFGNLINPHPKNSQSKEYALLLIDTIQITRSDPIVFTDSPKAQGDISYFFGED | soluble
3 | GAMAGMNIKDRTSEFQQSVLSYKKRNKNFREQQRERLQEKESENFANNTT | soluble
4 | GAMATGSRIGGGIDVPVPRHSVGVVIGRSGEMIKKIQNDAGVRIQFKQDDGTGPEKIAHIMGPPDRCEHAARIINDLLQSLRSGPPGPPGGPGMPPGGRGRGRGQG | soluble
5 | GAMDPMIIRGIRGARINNEIFNLGLKFQILNADVVATKKHVLHAINQAKTKKPIAKSFWMEILVRASGQRQIHEAIKIIGAKDGNVCLICEDEETFRKIYELIGGEIDDSVLEINEDKERLIREIFKIRGFGNVVERVLEKIALIELKKE | soluble
6 | GAMDPMKAKRVQAKIEMEFPSEDVAKVVYEAVLYEHLSVPYRRSEIDFKLEGKKIILDIKATDSSALRGTVNSYLRWIKAAIDVIEV | soluble
7 | GAMERKANYAVDAYFREALRVSEPKAPKAPRPPKQPIVQDFQFFPPRLFELLDQEIYYFRKTVGYKVPKNTELGSDATKVQREEQRKIDEAEPLTEEEIQEKENLLSQGFTAWTKRDFNQFIKANEKYGRDDIDNIAKDVEGKTPEEVIEYNAVFWERCTELQDIERIMGQIERGEGKIQRRLSIKKALDQKMSRYRAPFHQLRLQYGNNKGKNYTEIEDRFLVCMLHKLGFDKENVYEELRAAIRASPQFRFDWFIKSRTALELQRRCNTLITLIERENIELEEKERAEKKKKAPKGSVSAGS | soluble
8 | GAMGDPGLVSAYGAGLEGGVTGNPAEFVVNTSNAGAGALSVTIDGPSKVKMDCQECPEGYRVTYTPMAPGSYLISIKYGGPYHIGGSPFKAKVTGPRLV | soluble
9 | GAMGMQQGQMAYDRAITVFSPDGRLFQVEYAREAVKKGSTALGMKFANGVLLISDKKVRSRLIEQNSIEKIQLIDDYVAAVTSGLVADARVLVDFARISAQQEKVTYGSLVNIENLVKRVADQMQQYTQYGGVRPYGVSLIFAGIDQIGPRLFDCDPAGTINEYKATAIGSGKDAVVSFLEREYKENLPEKEAVTLGIKALKSSLEEGEELKAPEIASITVGNKYRIYDQEEVKKFL | soluble
10 | GAMGSIQENLIFPMDNPKGIDGFTNLKEKDIATNENKLLRTITADKMIPAFLITPISSQIAGKVIAQVESDIFAHMGKAVLIPKGSKVIGYYSNNNKMGEYRLDIVWSRIITPHGINIMLTNAKGADIKGYNGLVGELIERNFQRYGVPLLLSTLTNGLLIGITSALNNRGNKEGATNFFGDYLLMQLMRQSGMGINQVVNQILRDKSKIAPIVVIREGSRVFISPNTDIFFPIPRENEVIAEFLK | soluble
11 | GAMGSQQIATAKDKYEWLVSRIVKNHNENWLSVSRKMQASPEYQDYVYLEGTQKAKKLFLQHIHRLKHE | soluble
12 | GAMTKPRFTTGLVYDTLMLKHQCTAGSSSSHPEHAGRIQSIWSRLQETGLRGKCEAIRGRKATLEELQTVHSEAHTLLYGTNPLNRQKLDSKKLLGSLASVFVRLPCGGVGVDSDTIWNEVHSAGAARLAVGCVVELVFKVATGELKNGFAVVRPPGHHAEESTPMGFCYFNSVAVAAKLLQQRLSVSKILIVDWDVHHGNGTQQAFYSDPSVLYMSLHRYDDGNFFPGSGAPDEVGTGPGVGFNVNMAFTGGLDPPMGDAEYLAAFRTVVMPIASEFAPDVVLVSSGFDAVEGHPTPLGGYNLSARCFGYLTKQLMGLAGGRIVLALEGGYDLTAICDASEACVSALLGNELDPLPEKVLQQRPNANAVRSMEKVMEIHSKYWRCLQRTTSTAGRSLIEAQTCENEEAETVT | soluble
13 | GAPLKAVSAFAPPLHTQDFNLYSGEVHAHFTDYEAGMAFARQENKPVLLDFSGHGCVNCRKMENAVWIDPTVKSMLEKDYVLITLMVDEKKPLAEPLTIVFDGKEKTLRTVGDKWSYLQSHKFGANAQPFYVAIDHEGKPLSASYSYNEDVPLYVDFLKGGLQEFKKRKNK | not soluble
14 | GAQNQDCAFFFPNQEGEQITRNCYTADGKLTNILVYRVDQAYEYPSGMEVVANYTFADAAGKTLNSGQMVARCSDGNFSMSMGDVATFPTALNMMNADVYMMGDLMNYPDAFSNPMNPGDDDEFDDGTLRLYQKGNKNNRAEISVFDREFVTTETVNTPAGAFYCTKVKYEMNIWTPKETIKGYGYEWYAPNIGIVRSEQYNNKKELQSYSVLERIKK | soluble
15 | GASLAPLRRMREVAARVSANSLTTRLDASRMPEELRGLAGELNAMLARLEEAFQRLSAFSADIAHELRTPLTSLLTQTQVVLSRPRSLEDYREALHGNLEELERLTAMVNDMLLLAKADHGLLAPSRQALDLGAEVDSLLEFYQPLAEDRDIRLLREGSLSLPGDRGMLRRVLANLLDNALRFTADGGEIRIRLGDRRLSVENQGPAIPPERLPRLFDRFYRADPARREGQGEHAGLGLAICRSIVQAHGGEIRCESADGWTRFVIDFAR | not soluble
16 | GASSLKDEVPTETSEDFGFKFLGQKQILPSFNEKLPFASLQNLDISNSKSLFVAASGSKAVVGELQLLRDHITSDSTPLTFKWEKEIPDVIFVCFHGDQVLVSTRNALYSLDLEELSEFRTVTSFEKPVFQLKNVNNTLVILNSVNDLSALDLRTKSTKQLAQNVTSFDVTNSQLAVLLKDRSFQSFAWRNGEMEKQFEFSLPSELEELPVEEYSPLSVTILSPQDFLAVFGNVISETDDEVSYDQKMYIIKHIDGSASFQETFDITPPFGQIVRFPYMYKVTLSGLIEPDANVNVLASSCSSEVSIWDSKQVIEPSQDSERAVLPISEETDKDTNPIGVAVDVVTSGTILEPCSGVDTIERLPLVYILNNEGSLQIVGLFHVAAIKS | soluble
17 | GDIVAVHPIRRGTAEAIEVVAHGDKKTSAIIGRRISGIKWPEGCHIAAVVRAGTGETIMGHHTETVIQDGDHIIFFVSRRRILNELEKLIQVKMGFFG | not soluble
18 | GDKLLPKTLSKEIVSEPFAKNQLREKARLTNIKGLEIPRVSYTLDDDDFITDVETAKELKAKGDTVKFTTNKFKVFAAISDTVIHGSDVDLVNWVENALQSGLAAKERKDALAVSPKSGLEHMSFYNGSVKEVEGADMYDAIINALADLHEDYRDNATIYMRYADYVKIISVLSNGTTNFFDTPAEKVFGKPVVFTDAAVKPIVGDFNYFGINYDGTTYDTDKDVKKGEYLFVLTAWYDQQRTLDSAFRIAKA | soluble
19 | GEGSPVGIAILGYGTVGSQVLRLLTENHNDFQHRAGGPLEIKGVAASSVEKHRGSLADQLGLLTDDARSLIARDDVDIVVEVIGGIDYPRELILEALHSGKSVVTANKALVAAHSEELAAAADEAGVDLYFEAAVAAAIPVLGPLRRSLAGDQIQSVAGIVNGTTNFILDAMDSTGASYDDMLAEATRLGYAEADPTADVEGHDAASKAAILASLAFHTRVTYADVYCEGISKITADDINAAKEAGFTIKLLAICERLNVDGVEKVSARVHPTLVPRNHPLASVDKSFNAIFVEAEAAGRLMFYGNGAGGNPTASAVLGDIVGAARNKVFGGRAPGESTYADLPIAPFGEVPTRFHIDMEVEDRVGVLADLAKTFSNHGISLRTVRQAEKDGHARLIVVTHTAKESELEATVEQIKNSDSVKKINSVIRLAG | not soluble
20 | GETASSLWIDAAVAVSVPFQLNSVADRMNQGFSRLYQAYLLSRLRRIFLKKLNHLNNSPFSKSDLLSLKTFWDFDERITAPINGFKNAHEYYQKASSRQYLKNITTPTLIIHAQDDPFMTPDAIPASKELSSQTTLELSEYGGHVGFIAGTGKNSSQPVYWLEQRIPEFLLEYLS | not soluble
21 | GFKVIMVTDVGGLGDKSFNDGTWAGIKQAAEELGIEAKVIQSYEQSDYIPNLSKAAEEADLVFAVGFMMTNDLFKVAKQYPDTYFVGIDITPPEGQILPNVLTFTFKEQEAAFLVGYVAAAMTKTGMVGFVGGIPIPPVERFRYGYEAGIKTYSVLHKKNVKILRGYTQDFEDPKKGKDLAMSQFAEGADIVFHASGACGNGVIEAAREKFSALAGSDKLVDLIDYYTTNGKGFFAIGVDMDQDYMAPGAVLTSAMKRVD | soluble
22 | GGDVLERQMALMAQAAQRVQDMKRFVWDSLDSMPEPVVVTDLAGTVLIANHAAKRYCARLSAPAPEGRPLRVAFGELSFVKTVDGNAEQDVEIRSHWPAALDPTRDYENDVMERGIEVRDLSGLDHLLRYAPCTNAQGNVTGWIASLVDVTALHAAERQREEALHLLSHDM | soluble
23 | GGFDGHTHSAGKINVGRFINPNDARKNPVPGLSGQVARTEKTRAQVGYNTPNTYAIGYRYAKLGYTTICEAAIPLLAARHTHEEFKEIPILDKMGLSLFGSNWQVMEYIRDKEPEKLAAYIAWGLKASRGYGVKIVNPGGGEAWGWGRNVSGLYDPVPNFDVTPAEILLGLAEANERLQLPHSIHVHCNNLGKPGNYATTIETMKLLEKVKPSRDRQALHVTHVQFNAYAGTSWRDFETGAPMVADYINGANHLTFDLGQVIFGPAVTMTADGPVEYANSRMLHEKWSNQDIELEDASGVVPLFYSPKSFVNAVQWAIGLELALLVKDPWKVMFTTDSPNGGSFVNYPEAFTYLMSAKRREEVISGFSKMALDRMVLPGIDRELDFYELAVMTRSTQSKMYSMPEKGNLKVGSDADIAIYDILPGQVDPSTEYAKVKKAFSAASYTLKSGEVVVKDG | not soluble
24 | GGGGGGMNLRRRGIVVSFHSNMVTVEDEETGERILCKLRGKFRLQNLKIYVGDRVEYTPDETGSGVIENVLHRKNLLTKPHVANVDQVILVVTVKMPETSTYIIDKFLVLAEKNELETVMVINKMDLYDEDDLRKVRELEEIYSGLYPIVKTSAKTGMGIEELKEYLKGKISTMAGLSGVGKSSLLNAINPGLKLRVSEVSEKLQRGRHTTTTAQLLKFDFGGYVVDTPGFANLEINDIEPEELKHYFKEFGDKQCFFSDCNHVDEPECGVKEAVENGEIAESRYENYVKMFYELLGRRKK | soluble
25 | GGLPIVGDIFRFLDNGRTGLYENYKEFSTELNMTRESNGVKVTINDVISDGRTLSITYSLESEQDLGDDPIILGGLDIMDAHGSSGSGKMTKVTEKKYVGMVTTTHHDSNKKDKVNFRWNIEGIEIPDRKKSIQGHWNFALTVKSMDSKERTIGGSSEKEGIKANMEKVAMSPVSFILYYNQEVSKGARKEWDSVDVELTVKDDLGNDYSGEGNGGSGNDPYNIRWSATFQKLNENATKLIVTPRVHLRVHTPENHGGVEYVNGKEKKIEVPNKEAKKKDIVLDDIVIDLKK | soluble
